Data on 12 molecules can be found in US20230002489A1 (SHANGHAI EPIMAB BIOTHERAPEUTICS, published 2023).

Substitutions are numbered along the chain they refer to.

Assay [1] addresses T1, recombinant huCD3εγ/Fc fusion protein (fusion protein heterodimer) (human).
T1 construct: also called huCD3/Fc dimer; heterodimeric CD3εγ/Fc fusion protein
Kind of assay: SPR, Biacore T200, 25 C; antigen/Fc amine-coupled to the chip, FIT-Ig injected.

Assay [2] addresses T2, cynomolgus BCMA(ECD)/Fc target polypeptide (cynomolgus).
T2 construct: extracellular domain; also called Cyno BCMA (ECD); cynoBCMA/Fc
The assay is described as above.

The target of assay [3] is T3, cynoCD3εγ/Fc fusion protein (cynomolgus monkey, UniProt Q95LI5 22-117; Q95LI7 23-113).
T3 construct: also called cynomolgus monkey CD3ε/γ heterodimer-Fc fusion protein; not shown: linker and Fc not described for the cynomolgus construct
T3 sequence (looked up) 1: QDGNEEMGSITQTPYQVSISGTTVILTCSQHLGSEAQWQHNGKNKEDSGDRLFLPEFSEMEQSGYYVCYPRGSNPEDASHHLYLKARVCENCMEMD
T3 sequence (looked up) 2: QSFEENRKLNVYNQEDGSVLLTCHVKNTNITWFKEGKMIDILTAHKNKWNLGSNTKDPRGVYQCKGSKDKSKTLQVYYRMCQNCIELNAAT
The description is as above.

Assay [4] addresses T4, human CD3 on the surface of Jurkat cells (human, UniProt P07766 23-207; P09693 23-182; P04234 22-171).
T4 construct: whole, on cells; Endogenous CD3 complex of the Jurkat T cell line; also called cell surface CD3 target on Jurkat cells; CD3-expressing Jurkat cells
As to the kind of experiment: flow cytometry on Jurkat cells, Median-APC against antibody conc. (nM).

For assay [5], the target named is T5, recombinant human BCMA extracellular domain/Fc dimer (human).
T5 construct: also called Human BCMA (ECD); human BCMA(ECD)/Fc
Kind of assay: SPR, Biacore T200, 25 C; antigen/Fc amine-coupled to the chip, FIT-Ig injected. On the technique in general: In SPR one partner is held on a chip, and binding of the other changes the refractive index at the surface.

Assay [6] has as its target T4, human CD3 on the surface of Jurkat cells. As to the kind of experiment: flow cytometry on Jurkat/NFAT/luc cells, MFI against antibody conc. (nM).
Assay [7] addresses T6, BCMA on NCI-H929 cells (human, UniProt Q02223 1-184).
T6 construct: whole, on cells; also called BCMA-expressing NCI-H929 cells; BCMA-expressing target cells
T6 sequence (looked up): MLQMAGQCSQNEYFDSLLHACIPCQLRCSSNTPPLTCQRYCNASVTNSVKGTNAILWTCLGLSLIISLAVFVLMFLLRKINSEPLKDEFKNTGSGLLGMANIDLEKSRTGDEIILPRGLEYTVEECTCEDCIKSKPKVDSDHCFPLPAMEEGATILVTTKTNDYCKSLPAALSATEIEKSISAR
As to the kind of experiment: flow cytometry on NCI-H929 cells, MFI. For orientation: Flow cytometry measures light scatter and fluorescence of single cells or particles in a stream.

In assay [8] the target is T6, BCMA on NCI-H929 cells. Kind of assay: flow cytometry on NCI-H929 cells, Mean fluorescence against antibody conc. (nM). On the procedure: Binding activity of the chimeric bispecific BCMA/CD3 FIT-Ig antibodies was tested via flow cytometry with a human CD3/TCR complex transfected CHO cell line (CHOK1/CD3/TCR cells) and BCMA-expressing NCI-H929 cells. Briefly, 5×10⁵ cells in FACS buffer were seeded into 96 well plates. Cells were centrifuged at 400×g for 5 minutes and supernatants were discarded. For each well, 100 μl serially diluted FIT-Ig or FIT-Fab antibodies were then added and mixed with the cells. Following incubation for 40 minutes at 4° C., plates were washed several times to remove excess antibodies. Secondary antibody (goat anti-huIgG kappa chain specific) was then added and incubated with cells at room temperature for 20 minutes. After another round of centrifugation and washing, cells were resuspended with FACS buffer for reading on a CytoFLEX Flow Cytometer. Results were analyzed and plotted with GraphPad Prism 5.0 software.

Assay [9] addresses T2, cynomolgus BCMA(ECD)/Fc target …. As to the kind of experiment: SPR, Biacore T200, 25 C; antibody captured on anti-mouse IgG Fc, BCMA(ECD)/Fc injected. On the procedure:
(§1) Briefly, goat anti-mouse IgG Fc antibody was directly immobilized across a biosensor chip, and antibody samples were injected over reaction matrices at a flow rate of 5 μl/min. Mouse anti-BCMA IgG test antibody was injected over the immobilized surface and captured by the immobilized anti-Fc antibodies. Human and cynomolgus BCMA(ECD)/Fc target polypeptides were then injected over the captured mouse anti-BCMA IgG surface. The association and dissociation rate constants, kₒₙ (M⁻¹s⁻¹) and koff (s⁻¹), respectively, were determined with a continuous flow rate of 30 μl/min. Rate constants were derived by making kinetic binding measurements at five different concentrations of target BCMA(ECD) polypeptide. The equilibrium dissociation constant KD (M) of the reaction between antibodies and related target proteins was then calculated from the kinetic rate constants using the formula KD=koff/kₒₙ. Kinetic constants were determined by processing and fitting the data to a 1:1 binding model using Biacore analysis software.

Assay [10] addresses T5, recombinant human BCMA extracellular …. The assay is described as above. On the procedure: as §1
Assay [11] deals with T7, BCMA on HEK293F-BCMA-NF-kB-luc cells (clone 1H2) (UniProt Q02223 1-184, limits assumed).
T7 sequence (looked up): T6 sequence (looked up)
Kind of assay: cell-based or functional assay.

Assay [12] concerns the target T6, BCMA on NCI-H929 cells. As to the kind of experiment: cell-based or functional assay.

T1 sequence (chain, as listed by the source limits assumed, chain 1 of 2): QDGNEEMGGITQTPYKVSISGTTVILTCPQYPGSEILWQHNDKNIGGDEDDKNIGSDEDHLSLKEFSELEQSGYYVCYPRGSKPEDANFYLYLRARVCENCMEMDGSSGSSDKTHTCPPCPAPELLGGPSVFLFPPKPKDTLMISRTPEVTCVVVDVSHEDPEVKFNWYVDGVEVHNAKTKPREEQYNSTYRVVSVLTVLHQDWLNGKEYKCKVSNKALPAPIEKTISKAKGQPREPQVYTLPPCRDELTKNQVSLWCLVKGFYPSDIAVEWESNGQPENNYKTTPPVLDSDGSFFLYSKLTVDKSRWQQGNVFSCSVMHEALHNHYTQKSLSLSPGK
T1 sequence (chain, as listed by the source limits assumed, chain 2 of 2): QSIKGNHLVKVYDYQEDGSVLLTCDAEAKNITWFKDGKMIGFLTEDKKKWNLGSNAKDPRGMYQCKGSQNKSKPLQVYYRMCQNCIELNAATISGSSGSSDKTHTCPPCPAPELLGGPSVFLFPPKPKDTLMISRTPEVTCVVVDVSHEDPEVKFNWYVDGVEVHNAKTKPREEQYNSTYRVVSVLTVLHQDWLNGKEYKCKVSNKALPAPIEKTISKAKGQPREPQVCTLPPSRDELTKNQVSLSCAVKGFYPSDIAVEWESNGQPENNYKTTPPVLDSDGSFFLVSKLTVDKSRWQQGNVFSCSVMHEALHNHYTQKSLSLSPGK
T4 sequence (P07766 23-207, chain 1 of 3): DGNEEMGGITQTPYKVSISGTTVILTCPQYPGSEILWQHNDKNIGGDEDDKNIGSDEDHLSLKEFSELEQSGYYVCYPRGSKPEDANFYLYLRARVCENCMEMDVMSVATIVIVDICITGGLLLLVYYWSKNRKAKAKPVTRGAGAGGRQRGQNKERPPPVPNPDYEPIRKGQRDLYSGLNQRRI
T4 sequence (P09693 23-182, chain 2 of 3): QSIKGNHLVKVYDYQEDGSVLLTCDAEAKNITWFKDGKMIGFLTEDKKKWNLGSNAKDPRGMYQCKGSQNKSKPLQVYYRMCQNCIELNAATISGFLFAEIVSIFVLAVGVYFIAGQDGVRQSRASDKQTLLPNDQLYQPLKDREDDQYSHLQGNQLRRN
T4 sequence (P04234 22-171, chain 3 of 3): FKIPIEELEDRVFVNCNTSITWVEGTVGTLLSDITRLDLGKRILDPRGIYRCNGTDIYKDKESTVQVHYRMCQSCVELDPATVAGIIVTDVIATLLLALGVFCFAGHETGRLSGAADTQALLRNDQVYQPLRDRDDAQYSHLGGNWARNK

B1: FIT1006-31b (D-E) (bispecific antibody, human IgG1, kappa, L234A L235A)
chain 1: not shown
chain 2: EVQLVQSGAEVKKPGASVKVSCKASGYTFTNFWMHWVRQAPGQRLEWMGAFYPGNDDTYYNQKFKGRVTITADTSASTAYMELSSLRSEDMAVYYCARSGYYGSSDAMDYWGQGTTVTVSSASTKGPSVFPLAPSSKSTSGGTAALGCLVKDYFPEPVTVSWNSGALTSGVHTFPAVLQSSGLYSLSSVVTVPSSSLGTQTYICNVNHKPSNTKVDKKVEPKSC
chain 3: not shown
notes: Humanized BCMA/CD3 FIT-Ig, outer BCMA and inner CD3 Fab, no linkers
For orientation: Kd means the equilibrium constant for the complex coming apart. In general, koff refers to the rate constant with which the complex falls apart. Usually kon stands for the rate constant with which the complex forms. In the case of B1, the Kd in assay [1] came to 17.1 nM; in assay [2], 1.61 nM; in assay [3], 10.8 nM. Moreover, the figures for the koff in [1], in assay [2] and in assay [3] were 0.00574 s⁻¹, 0.000167 s⁻¹ and 0.00632 s⁻¹, respectively. For the same molecule, the results for the kon in assay [1], in assay [2] and in assay [3] were 337000 M⁻¹ s⁻¹, 104000 M⁻¹ s⁻¹ and 583000 M⁻¹ s⁻¹, respectively.

B2: FIT1006-35b(D-T) (bispecific antibody, human IgG1, kappa, L234A L235A)
chain 1: not shown
chain 2: B1 chain 2
chain 3: not shown
notes: Humanized BCMA/CD3 FIT-Ig, outer BCMA and inner CD3 Fab
As for B2, the binding result in [4] is on record as “binds”.

B3: FIT1006-29b(D-A) (bispecific antibody, human IgG1, kappa, L234A L235A)
chain 1: not shown
chain 2: B1 chain 2 with T30P, M48I, R67K, V68A, I70L
chain 3: not shown
notes: as for B2
Turning to B3, the Kd in [1] was 16.7 nM; in assay [2] it was 1.09 nM; in [5], less than 0.057 nM; in assay [3], 11.2 nM. In addition, the koff in [1] was 0.00585 s⁻¹; in [2], 0.00021 s⁻¹; in assay [5] it was less than 5e-06 s⁻¹; in [3], 0.00607 s⁻¹. Also, the kon in [1] amounted to 349000 M⁻¹ s⁻¹; in [2], 192000 M⁻¹ s⁻¹; in assay [5] it was 87800 M⁻¹ s⁻¹; in assay [3], 541000 M⁻¹ s⁻¹.

B4: FIT1006-31b(D-T) (bispecific antibody, human IgG1, kappa, L234A L235A)
chain 1: not shown
chain 2: B1 chain 2
chain 3: not shown
notes: as for B2
The EC50 (read off the curve) is the concentration that produces a half-maximal response. High values mean a need for much substance, low ones an effect from little substance. As to B4, in assay [4], the “EC50 (read off the curve)” value was roughly 3 nM. In [1], the equilibrium dissociation constant (Kd) came to 15.6 nM, the koff was 0.00572 s⁻¹ and the kon was 367000 M⁻¹ s⁻¹. In assay [2], this molecule showed a dissociation constant Kd of 1.02 nM, a koff of 0.000191 s⁻¹ and a kon of 188000 M⁻¹ s⁻¹. In [3], this molecule had a Kd of 11.4 nM, a koff of 0.00621 s⁻¹ and a kon of 546000 M⁻¹ s⁻¹.

B5: HuEM0006-01-24 (antibody, human IgG1, kappa, L234A L235A, V domains shown)
VH: EVQLVQSGAEVKKPGASVKVSCKASGFSFTNYYVHWMRQAPGQGLEWMGWISPGSDNTKYNEKFKGRVTMTRDTSISTAYMELSRLRSDDTAVYYCARDDYGNYYFDYWGQGTTVTVSS
VL: DIVMTQSPDSLAVSLGERATINCKSSQSLLNARTRKNYLAWYQQKPGQPPKLLIYWASTRESGVPDRFSGSGSGTDFTLTISSLQAEDVAVYYCKQSYILRTFGGGTKVEIKR
notes: Humanized variant of mAbCD3-001; also called HuEM1006-01-24; monospecific anti-CD3 IgG
In the case of B5, in [6], the “EC50 (read off the curve)” value was roughly 0.5 nM. For the same molecule, the binding result with BCMA on NCI-H929 cells [7] is “no binding (tested: 100 nM)”.

B6: huEM0006-01-27 (antibody, human IgG1, kappa, L234A L235A, V domains shown)
VH: B5 VH with M48I, M70L, R72A
VL: B5 VL
As for B6, the binding result is “binds” in assay [6] and “no binding (tested: 100 nM)” with BCMA on NCI-H929 cells [7].

B7: FIT1006-6a-Fab (bispecific antibody, not shown: small tags and cut ends)
chain 1: not shown
chain 2: EVQLVQSGAEVKKPGASVKVSCKASGYTFTNYYVHWMRQAPGQGLEWIGWISPGSDNTKYNEKFKGRVTLTADTSISTAYMELSRLRSDDTAVYYCARDDYGNYYFDYWGQGTTVTVSSASTKGPSVFPLAPSSKSTSGGTAALGCLVKDYFPEPVTVSWNSGALTSGVHTFPAVLQSSGLYSLSSVVTVPSSSLGTQTYICNVNHKPSNTKVDKKVEPKSC
chain 3: DIQMTQSPASLSASVGETVTVTCGASENIYGALNWYQRKQGKSPQLLIYGATNLADGISSRFSGSGSGRQFSLKISSLLPDDVATYFCQSVLTTPWTFGGGTKLEIKRTVAAPSVFIFPPSDEQLKSGTASVVCLLNNFYPREAKVQWKVDNALQSGNSQESVTEQDSKDSTYSLSSTLTLSKADYEKHKVYACEVTHQGLSSPVTKSFNRGEC
notes: FIT-Fab made from FIT1006-6a by papain digestion (Fc removed)
On to B7, for which the binding result with BCMA on NCI-H929 cells [8] is recorded as “binds”.

B8: FIT1006-31a(D-T) (bispecific antibody, human IgG1, kappa, L234A L235A)
chain 1: not shown
chain 2: B7 chain 2 with Y27F, T28S, I48M, L70M, A72R
chain 3: DIQMTQSPSSLSASVGDRVTITCGASENIYGALNWYQQKPGKAPKLLIYGATNLATGIPSRFSGSGSGRDFTLTISSLQPEDFATYYCQSVLTTPWTFGQGTKLEIKRTVAAPSVFIFPPSDEQLKSGTASVVCLLNNFYPREAKVQWKVDNALQSGNSQESVTEQDSKDSTYSLSSTLTLSKADYEKHKVYACEVTHQGLSSPVTKSFNRGEC
Take B8: in assay [6], the “EC50 (read off the curve)” value was roughly 1 nM.

B9: FIT1006-35a(D-T) (bispecific antibody, human IgG1, kappa, L234A L235A)
chain 1: not shown
chain 2: B7 chain 2 with Y27F, T28S
chain 3: B8 chain 3
In the case of B9, the binding result in assay [6] is on record as “binds”.

B10: FIT1006-4a-Fab (bispecific antibody, not shown: small tags and cut ends)
chain 1: not shown
chain 2: B7 chain 2 with Y27F, T28S, I48M, L70M, A72R
chain 3: B7 chain 3
B10: in the assay with BCMA on NCI-H929 cells [8], the binding result is recorded as “binds”.

B11: FIT1006-8a-Fab (bispecific antibody, not shown: small tags and cut ends)
chain 1: not shown
chain 2: B7 chain 2 with M37V
chain 3: B7 chain 3
notes: FIT-Fab made from FIT1006-8a by papain digestion (Fc removed)
Regarding B11, the binding result with BCMA on NCI-H929 cells [8] is reported as “binds”.

B12: mAbBCMA-002 (antibody, V domains shown)
VH: QIQLVQSGPELKKPGETVKISCKASGYSFTNYGLNWVKQAPGKGLKWMGWINTYSGHPTYVDDFKGRFAFSLETSASTAYLQINKLKNEDTSTYFCVREKDDGYRLGLDYWGQGTSVTVSS
VL: QIVLTQSPAIMSASPGEKVTMTCSASSSVSYMYWYQQRPGSSPRLWIYDTSNLVSGVPARFSGSRSGTSYSLTISGMEAEDAATYYCLQYSGYPYTFGGGTKLEIK
notes: Mouse anti-BCMA IgG from hybridoma
In assay [9], B12 came in with a Kd of 7.55 nM, a koff of 0.000304 s⁻¹ and a kon of 40300 M⁻¹ s⁻¹. For the same molecule, in assay [10], the Kd is 13.8 nM, the koff was determined as 0.00292 s⁻¹ and the kon came out at 212000 M⁻¹ s⁻¹. In assay [11], the “EC50 of inhibition of the BAFF-induced NF-kB luciferase signal in HEK293F-BCMA-NF-kB-luc cells (inhibition %; the curve reaches only about 30 % at 100 nM), unit from the axis” value is 20.1 nM. In addition, in the assay with BCMA on NCI-H929 cells [12], the “EC50 of inhibition of BAFF-induced NF-kB phosphorylation in NCI-H929 cells (inhibition %), unit from the axis” value was determined as 34.8 nM.
